Here are results for 43 substances from US20240368668A1, “SUBSTRATES AND BIOMARKERS OF ADAMTS7” (The Broad Institute, Inc., priority 2021, published 2024).

Square brackets hold non-standard residues; d marks the D form. Ends that are not written are not given here. Met(O) = CS(=O)CC[C@H](N)C(=O)O

The target of one assay is T1, mouse ADAMTS7 (Mus musculus, UniProt Q68SA9, E373Q).
T1 construct: Full-length mouse Adamts7 1-1857 (Uniprot Q68SA9, WT or E373Q catalytic mutant); expressed in transfected cells; host or cells: Human Coronary Artery Smooth Muscle Cells (HCA-SMC, Lonza), adenovirus 50 MOI
T1 sequence (Q68SA9 221-1657 E373Q): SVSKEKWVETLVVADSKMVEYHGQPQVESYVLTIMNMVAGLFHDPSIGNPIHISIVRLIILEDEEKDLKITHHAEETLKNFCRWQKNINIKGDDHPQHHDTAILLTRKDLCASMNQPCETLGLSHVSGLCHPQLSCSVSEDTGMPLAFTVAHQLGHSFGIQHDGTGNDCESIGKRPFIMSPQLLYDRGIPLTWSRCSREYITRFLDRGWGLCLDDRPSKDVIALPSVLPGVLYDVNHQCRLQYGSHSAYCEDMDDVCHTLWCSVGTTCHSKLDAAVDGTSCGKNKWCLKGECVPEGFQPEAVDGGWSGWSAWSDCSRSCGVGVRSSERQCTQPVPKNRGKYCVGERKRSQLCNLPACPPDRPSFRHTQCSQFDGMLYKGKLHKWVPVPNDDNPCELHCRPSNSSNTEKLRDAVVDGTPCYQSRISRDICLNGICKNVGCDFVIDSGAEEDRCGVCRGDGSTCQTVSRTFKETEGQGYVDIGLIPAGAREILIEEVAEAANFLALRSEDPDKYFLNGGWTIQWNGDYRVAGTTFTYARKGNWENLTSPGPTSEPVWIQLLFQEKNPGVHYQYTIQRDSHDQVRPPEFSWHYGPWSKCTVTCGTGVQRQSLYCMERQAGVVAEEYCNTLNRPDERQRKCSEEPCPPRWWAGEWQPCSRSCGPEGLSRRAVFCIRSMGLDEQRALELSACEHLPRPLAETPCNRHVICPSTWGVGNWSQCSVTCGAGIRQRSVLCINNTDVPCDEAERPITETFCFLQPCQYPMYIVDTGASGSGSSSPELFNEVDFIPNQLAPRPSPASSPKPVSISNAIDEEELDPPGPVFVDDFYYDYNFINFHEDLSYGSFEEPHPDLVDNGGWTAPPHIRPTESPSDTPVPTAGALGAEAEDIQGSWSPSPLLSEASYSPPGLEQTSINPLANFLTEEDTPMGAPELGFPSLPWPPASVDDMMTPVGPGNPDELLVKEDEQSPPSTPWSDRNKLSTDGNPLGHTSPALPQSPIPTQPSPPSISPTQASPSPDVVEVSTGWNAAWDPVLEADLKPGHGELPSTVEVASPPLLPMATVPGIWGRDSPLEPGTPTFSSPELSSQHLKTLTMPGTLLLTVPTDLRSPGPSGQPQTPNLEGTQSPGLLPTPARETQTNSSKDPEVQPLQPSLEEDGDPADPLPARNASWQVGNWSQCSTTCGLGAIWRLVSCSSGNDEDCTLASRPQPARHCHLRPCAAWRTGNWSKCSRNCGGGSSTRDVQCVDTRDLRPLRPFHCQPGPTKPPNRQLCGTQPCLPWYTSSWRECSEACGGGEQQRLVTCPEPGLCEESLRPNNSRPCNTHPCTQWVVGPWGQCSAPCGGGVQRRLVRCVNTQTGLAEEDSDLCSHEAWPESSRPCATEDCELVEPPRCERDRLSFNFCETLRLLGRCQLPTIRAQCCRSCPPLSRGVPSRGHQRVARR
The assay is described as follows: TMT10 TAILS N-terminomics, SMC2 experiment (process replicates, trypsin/AspN digest). Format: cell-based. The settings on record: SMC2_TAILS HC; log fold change of N-terminal peptide, Ad-mADAMTS7 EQ over Luc. In a few lines: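 Full-length mouse ADAMTS7 (WT or E373Q mutant, C-terminal 3xFLAG) or luciferase was transduced via adenovirus, 50 MOI, into HCA-SMC (SMC1, SMC2) or HUVEC. SMC1: pooled media, technical triplicates 400 ug; SMC2: process triplicates 300 ug; HUVEC: process triplicates 200 ug, bFGF2 10 ng/ml.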
As to “LOXL1_218 (AVASAGVIYPYQPR; listed as Homo sapiens)”, the logFC.mEQ.over.Luc is on record as −0.11. “LOXL2_45 (HQPQAPANVAKIQLR; listed as Homo sapiens)” registered a logFC.mEQ.over.Luc of 0.11.

In turn, “LTBP2_79 (VAGLQPVER; listed as Homo sapiens)” had a logFC.mEQ.over.Luc of −0.09. Same read-out and setting: next, “LTBP2_250 (SAAGEGTLAR; listed as Homo sapiens)”: −0.21; “LTBP2_290 (QHVGLSR; listed as Homo sapiens)”: −0.10; “LTBP2_502 (LVENSVETRPPPWLPASPGHSLW; listed as Homo sapiens)”: −0.18. On the same count and under the same terms, the same measure for “LTBP3_103 (LTGSGFR; listed as Homo sapiens)”: −0.92; for “LTBP3_208 (FLVPLGPGQISA; listed as Homo sapiens)”: −0.03. On the same count and under the same terms, the same measure for “MAP4_815 (AVASTGPSSR; listed as Homo sapiens)”: −0.02; for “MAP4_816 (VASTGPSSR; listed as Homo sapiens)”: 0.02. With “MMP1_100 (FVLTEGNPR; listed as Homo sapiens)”, the logFC.mEQ.over.Luc is −0.05. On the same count and under the same terms, next, “MMP1_185 (FQPGPGIGG; listed as Homo sapiens)”: −0.37; “NBEA_1892 (LEKVAPLLR; listed as Homo sapiens)”: −0.08; “NID1_360 (FHQQHPQVI; listed as Homo sapiens)”: −0.22. As for “NID2_291 (HSSVPLGR; listed as Homo sapiens)”, the logFC.mEQ.over.Luc is given as 0.00.

Substance “NID2_951 (YAYPGAR; listed as Homo sapiens)” displayed a logFC.mEQ.over.Luc of −0.06.

For “PAK4_141 (HSEAGGGSG; listed as Homo sapiens)”, the logFC.mEQ.over.Luc is given as 0.69. The same measure, in the same setting: next, “PLIN3_75 (VSGAQPILSKL; listed as Homo sapiens)”: 0.07; “POSTN_727 (IITGPEIKYTR; listed as Homo sapiens)”: −0.09. As to “PPP1R18_295 (LSETLTR; listed as Homo sapiens)”, the logFC.mEQ.over.Luc was 0.03. Take “PTPRF_1859 (MRYEGVVDMFQTVKTLR; listed as Homo sapiens)”: the logFC.mEQ.over.Luc is on record as −0.08.

In the case of “QSOX1_210 (HKGVAVR; listed as Homo sapiens)”, the logFC.mEQ.over.Luc is −0.49. In turn, “SHC2_267 (VAKDPINQRACHIL; listed as Homo sapiens)” registered a logFC.mEQ.over.Luc of 0.04. The substance “SPOCK1_27 (LAGGAGPNHGNFL; listed as Homo sapiens)” yielded a logFC.mEQ.over.Luc of −0.65.

As for “SRGN_59 (LLPGESNKIPR; listed as Homo sapiens)”, the logFC.mEQ.over.Luc is recorded as 0.05. On the same count and under the same terms, the same measure for “TNPO2_744 (VQ[Met(O)]VLNNLVEII[code n]RP[code n]TPKTLLE; listed as Homo sapiens)”: 0.06. Same read-out and setting: next, “TNS1_236 (QEGLAGYQR; listed as Homo sapiens)”: −0.59; “TRGC2_86 (HRCIVRHENNK; listed as Homo sapiens)”: 0.23; “TTN_5975 (VKEPPVEFTKPL; listed as Homo sapiens)”: −0.19.

“VAT1_42 (AASPPLLR; listed as Homo sapiens)”: the logFC.mEQ.over.Luc amounted to 0.27. On the same count and under the same terms, the same measure for “VIM_314 (QESTEYR; listed as Homo sapiens)”: −0.22; for “VIM_333 (LKGTNESLER; listed as Homo sapiens)”: −0.09.

Still in this assay, the particulars now being: SMC2_TAILS HC; log fold change, mEQ over Luc.
For “COL1A2_80 (QYDGKGVGLGPGPMGLMGPR; listed as Homo sapiens)”, the logFC.mEQ.over.Luc is −0.33. On the same count and under the same terms, the same measure for “COL1A2_270 (VGNAGPAGPAGPR; listed as Homo sapiens)”: −0.05. For “COL1A2_305 (LTGAKGAAGLPGVAGAPGLPGPR; listed as Homo sapiens)”, the logFC.mEQ.over.Luc was −0.32. On the same count and under the same terms, the same measure for “COL1A2_630 (VGTAGPSGPSGLPGER; listed as Homo sapiens)”: −0.30; for “COL1A2_866 (LLGAPGILGLPGSR; listed as Homo sapiens)”: −0.46; for “COL1A2_960 (AGAPGPHGPVGPAGKHGNR; listed as Homo sapiens)”: −0.16.

Take “COL1A2_1028 (LQGLPGIAGHHGDQGAPGSVGPAGPR; listed as Homo sapiens)”: the logFC.mEQ.over.Luc is reported as −0.25. As for “COL4A2_71 (YNGPPGLQGFPGLQGR; listed as Homo sapiens)”, the logFC.mEQ.over.Luc is on record as −0.32. Same read-out and setting: next, “COL18A1_1505 (LQPPVVQLHDSNPYPR; listed as Homo sapiens)”: −0.01.

The assay is the same for the next values; noted with them: log fold change, ADAMTS7 EQ over luciferase.
In the case of “SERBP1_56 (QAAAQTNSNAAGKQLR; listed as Homo sapiens)”, the logFC.mEQ.over.Luc is listed as −0.09.

Regarding “SRGN_59 (LLPGESNKIPR; listed as Homo sapiens)”, the logFC.mEQ.over.Luc is on record as −0.10. “THBS2_290 (LSENLKR; listed as Homo sapiens)” came in with a logFC.mEQ.over.Luc of 0.59.

The substance “VIM_314 (QESTEYR; listed as Homo sapiens)” returned a logFC.mEQ.over.Luc of 0.03. Substance “VIM_333 (LKGTNESLER; listed as Homo sapiens)” gave a logFC.mEQ.over.Luc of −0.03.
